# Results as given in publication PMC3805332, “Synthesis of α-Glucan in Mycobacteria Involves a Hetero-octameric Complex of Trehalose Synthase TreS and Maltokinase Pep2” (ACS Chemical Biology, 2013).
# Where two headings read alike, the source gives them in different places.
# What was measured:
# [1] = biological target: M. tuberculosis trehalose synthase TreS (M. tuberculosis H37Rv) (UniProt P9WQ19); experiment: AUC
# [2] = biological target: M. tuberculosis trehalose synthase TreS (M. tuberculosis H37Rv) (UniProt P9WQ19); experiment: AUC; remark: listed apart in the source
# Sequence of M. tuberculosis trehalose synthase TreS (M. tuberculosis H37Rv) (P9WQ19 whole entry): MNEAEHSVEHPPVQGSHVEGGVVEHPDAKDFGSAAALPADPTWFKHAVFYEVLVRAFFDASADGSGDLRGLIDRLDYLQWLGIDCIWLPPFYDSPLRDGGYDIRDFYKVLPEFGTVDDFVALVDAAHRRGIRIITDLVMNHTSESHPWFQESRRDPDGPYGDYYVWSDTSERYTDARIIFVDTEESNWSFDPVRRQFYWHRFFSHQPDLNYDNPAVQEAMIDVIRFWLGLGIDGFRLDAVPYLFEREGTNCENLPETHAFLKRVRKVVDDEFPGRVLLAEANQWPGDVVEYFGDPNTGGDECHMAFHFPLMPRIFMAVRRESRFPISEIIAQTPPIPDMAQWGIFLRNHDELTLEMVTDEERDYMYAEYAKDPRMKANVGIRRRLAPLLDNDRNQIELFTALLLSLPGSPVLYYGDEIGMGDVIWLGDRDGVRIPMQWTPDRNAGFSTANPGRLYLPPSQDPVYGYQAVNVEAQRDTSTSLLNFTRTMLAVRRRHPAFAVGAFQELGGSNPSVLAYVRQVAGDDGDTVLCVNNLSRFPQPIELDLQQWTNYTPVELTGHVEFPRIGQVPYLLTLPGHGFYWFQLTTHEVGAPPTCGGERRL
substance,measurement,setting,value
M. tuberculosis maltokinase Pep2 (from UniProt O07177 1-455) (enzyme),stoichiometry N (Pep2 subunits per TreS tetramer),[1],2
same,stoichiometry N (Pep2 subunits per TreS tetramer),[2],4
